Assay results as given in patent US20080050387A1 (published 2008).

Tests used:
[1] = biological target: T1, testicular receptor 4 (TR4) (Homo sapiens (Human), UniProt P49116 1-596, limits assumed); assay: CytoTrap Sos yeast two-hybrid, growth of cdc25H on SD/Gal(-LU) at 37° C
T1 construct: hSos fusion (pSos-TR4) in yeast; also called pSos-TR4
T1 sequence: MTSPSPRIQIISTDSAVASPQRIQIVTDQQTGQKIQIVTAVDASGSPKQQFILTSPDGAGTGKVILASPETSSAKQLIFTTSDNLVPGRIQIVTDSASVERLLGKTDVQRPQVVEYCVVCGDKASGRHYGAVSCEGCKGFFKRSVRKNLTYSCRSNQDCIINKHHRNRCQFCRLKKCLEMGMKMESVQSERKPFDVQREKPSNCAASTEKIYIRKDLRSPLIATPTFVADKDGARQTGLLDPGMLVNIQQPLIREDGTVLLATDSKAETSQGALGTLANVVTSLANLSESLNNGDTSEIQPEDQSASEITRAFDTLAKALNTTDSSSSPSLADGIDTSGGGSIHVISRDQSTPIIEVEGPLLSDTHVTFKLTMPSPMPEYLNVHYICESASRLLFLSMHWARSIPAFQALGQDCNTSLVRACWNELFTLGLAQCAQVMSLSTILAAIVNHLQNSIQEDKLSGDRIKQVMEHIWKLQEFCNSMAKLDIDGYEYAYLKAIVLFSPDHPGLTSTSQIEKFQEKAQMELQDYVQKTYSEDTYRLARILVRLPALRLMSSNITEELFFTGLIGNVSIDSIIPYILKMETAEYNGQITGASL
Experimental: (§1) The bait and library constructs were co-transformed into yeast strain cdc25H. […] Only the clones that grow out on SD/Gal (−LU) plates but not on SD/Glu (−LU) plates at 37° C. are interaction positive ones.

[2] = biological target: T2, ARA70 (UniProt Q13772 1-614, limits assumed); assay: as above
T2 construct: also called pSos-ARA70; pSos-APA70
T2 sequence (looked up): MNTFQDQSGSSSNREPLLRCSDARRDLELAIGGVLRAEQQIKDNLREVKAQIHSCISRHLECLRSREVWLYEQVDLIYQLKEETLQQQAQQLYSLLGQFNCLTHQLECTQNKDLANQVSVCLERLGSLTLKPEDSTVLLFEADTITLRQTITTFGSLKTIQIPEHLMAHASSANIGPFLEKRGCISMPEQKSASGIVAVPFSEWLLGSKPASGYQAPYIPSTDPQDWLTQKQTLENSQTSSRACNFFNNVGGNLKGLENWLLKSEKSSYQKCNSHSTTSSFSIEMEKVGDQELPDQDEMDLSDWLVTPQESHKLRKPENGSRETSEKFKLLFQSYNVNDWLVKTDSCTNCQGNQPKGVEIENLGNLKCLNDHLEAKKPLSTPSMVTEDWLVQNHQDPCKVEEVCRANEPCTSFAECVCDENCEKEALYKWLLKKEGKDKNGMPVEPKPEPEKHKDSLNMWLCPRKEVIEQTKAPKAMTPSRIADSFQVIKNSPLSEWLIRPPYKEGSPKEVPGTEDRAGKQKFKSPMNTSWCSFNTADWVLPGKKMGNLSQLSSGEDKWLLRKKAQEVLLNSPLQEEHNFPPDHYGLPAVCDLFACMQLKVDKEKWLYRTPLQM
Experimental: as §1

binding result [1]: no binding
binding result [2]: no binding
B1: ARA67 clone of the CytoTrap screen, amino acids 20-585 of PAT1 (pMyr-ARA67) (other)
chain: AVVDNYIRSRRDIRSLPENIQFDVYYKLYQQGRLCQLGSEFCELEVFAKVLRALDKRHLLHHCFQALMDHGVKVASVLAYSFSRRCSYIAESDAAVKEKAIQVGFVLGGFLSDAGWYSDAEKVFLSCLQLCTLHDEMLHWFRAVECCVRLLHVRNGNCKYHLGEETFKLAQTYMDKLSKHGQQANKAALYGELCALLFAKSHYDEAYKWCIEAMKEITAGLPVKVVVDVLRQASKACVVKREFKKAEQLIKHAVYLARDHFGSKHPKYSDTLLDYGFYLLNVDNICQSVAIYQAALDIRQSVFGGKNIHVATAHEDLAYSSYVHQYSSGKFDNALFHAERAIGIITHILPEDHLLLASSKRVKALILEEIAIDCHNKETEQRLLQEAHDLHLSSLQLAKKAFGEFNVQTAKHYGNLGRLYQSMRKFKEAEEMHIKAIQIKEQLLGQEDYEVALSVGHLASLYNYDMNQYENAEKLYLRSIAIGKKLFGEGYSGLEYDYRGLIKLYNSIGNYEKVFEYHNVLSNWNRLRDRQYSVTDALEDVSTSPQSTEEVVQSFLISQNVEGPSC
notes: The clone matched the DNA encoding aa 20-585 of PAT1 at 99.6% identity; also called pMyr-ARA67/PAT1
